The values that follow come from patent US20230041071A1 (NATIONAL INSTITUTE OF BIOLOGICAL SCIENCES BEIJING, published 2023).

Experiment [1] has as its target T1, mAREG: mouse AREG comprising residues 94-177 of the mouse pro-AREG with an N-terminal AVI tag (mouse, biotinylated using BirA enzyme (Avi tag)).
T1 construct: Expressed in E. coli, cleaved by HRV 3C protease, biotinylated; also called biotinylated mAREG
T1 chain: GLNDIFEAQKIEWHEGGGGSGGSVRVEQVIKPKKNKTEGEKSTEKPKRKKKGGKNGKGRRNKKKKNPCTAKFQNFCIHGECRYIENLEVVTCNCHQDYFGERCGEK
Put plainly: ELISA, biotinylated mAREG captured on streptavidin-coated plate, bound IgG detected with HRP anti-Fc antibody. As to the method: (§1) Streptavidin (Sigma, […]) in phosphate buffered saline (PBS) was coated in U-bottom 96-well plate (Nunc, MaxiSorp™), 100 μL per well, at 4° C. overnight or 37° C. for 1 hour.
(§2) About […] of AREG protein or peptide at 100 μL per well were then captured onto the plates by incubation at 30° C. for 1 hour. For phage-scFv based ELISA, serial diluted phage-scFvs in PBS containing 2% nonfat milk were added to each well at 100 μL per well. Specific bound phage-scFvs were detected by adding HRP-conjugated mouse anti-M13 antibody (GE Healthcare) and incubated for 30 mins at 30° C. In between each incubation step, the ELISA plate was washed for 6 times with PBST solution (0.05% Tween20 containing PBS) at 300 µL per well. Followed by HRP-conjugated antibody incubation, the ELISA signal was developed by incubating with TMB substrate (Sigma) for 5-10 mins at 30° C. and then the reaction was stopped with 2M H₂SO₄ at 50 µL per well. The absorbance at 450 nm with the correction wavelength set at 630 nm was read by a microplate reader (Bio-Rad). For IgG based ELISA, the method was basically the same as described above for phage-scFvs except the bound antibodies were detected by HRP-conjugated mouse anti-Fc secondary antibody (Thermo Fisher Scientific).
(ELISA stands for enzyme-linked immunosorbent assay.)

Experiment [2] concerns the target T2, C18 peptide (human, cysteine pairing not given here; also: biotinylated, position not given here).
T2 construct: Synthetic (Scilight-peptide); also called hAREG-C18; C-terminal peptide
T2 peptide: GSSGKCQQEYFGERCGEK
Briefly: ELISA, biotinylated C18 peptide captured on streptavidin-coated plate, bound IgG detected with HRP anti-Fc antibody. As to the method:
as §1, §2

In experiment [3] the target is T3, hAREG: human AREG comprising residues 101-184 of the human pro-AREG with an N-terminal AVI tag (human, biotinylated using BirA enzyme (Avi tag)).
T3 construct: Expressed in E. coli with His6-TRX-3C site-Avi tags and cleaved by HRV 3C protease; also called biotinylated hAREG
T3 chain: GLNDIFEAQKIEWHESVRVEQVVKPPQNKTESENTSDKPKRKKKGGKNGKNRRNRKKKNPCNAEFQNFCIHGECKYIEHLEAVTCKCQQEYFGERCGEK
Put plainly: ELISA, biotinylated hAREG captured on streptavidin-coated plate, bound IgG detected with HRP anti-Fc antibody. As to the method:
as §1, §2

The target in another experiment is T4, mAREG-EGFd-DLLA-mFc (mouse, UniProt P31955 135-177, limits assumed).
T4 construct: Expressed in 293F cells; also called mAREG-DLLA
T4 chain: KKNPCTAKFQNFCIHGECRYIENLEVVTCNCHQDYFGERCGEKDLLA
Put plainly: competition ELISA; antibody titrated against 50 nM mAREG-DLLA on captured mEGFR-ECD. As to the method:
Briefly, streptavidin (Sigma, 5 μg/mL) were coated in U-bottom 96-well plates, 100 nM biotinylated hEGFR-ECD or mEGFR-ECD in 100 μL per well were then captured onto the plates. Different antibodies at serial diluted concentrations were mixed with 5 nM hAREG-DLLA or 50 nM mAREG-DLLA protein and added to the ELISA plate. The binding of hAREG-DLLA to hEGFR-ECD or the binding of mAREG-DLLA to mEGFR-ECD was detected by HRP-conjugated mouse anti-mouse IgG Fc antibody (Thermo Fisher).
To facilitate the competition ELISA assay, we used the hAREG-EGFd-DLLA-mFc (hAREG-DLLA) or mAREG-EGFd-DLLA-mFc (mAREG-DLLA) as the ligands for binding to EGFR in the assay.

Another experiment deals with T5, mAREG-EGFd-mFc (mouse, UniProt P31955 135-177).
T5 construct: also called EGF domain of mAREG (aa135-177) fused with mFc tag; not shown: mFc tag (Fc fragment of mouse IgG2a as for hAREG-EGFd-mFc)
T5 chain: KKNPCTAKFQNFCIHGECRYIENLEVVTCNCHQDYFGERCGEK
Briefly: SPR, Biacore T200; mAb captured on anti-human Fc chip, antigen in solution. As to the method: (§3) To evaluate affinities of different mouse hybridoma mAbs or their humanized and engineered variants, SPR measurement was performed using Biacore T200 instrument. mAbs were captured on anti-human Fc CM5 biosensor chip surface, hAREG-EGFd-mFc, mAREG-EGFd-mFc or hAREG-98aa (purchased from PeproTech, cat #100-55B) in serial dilutions were injected over antibody-bound surface, followed by a dissociation phase. Association rates (Ka) and dissociation rates (Kd) were calculated using the one-to-one Langmuir binding model (BIA Evaluation Software, GE Life Sciences). The equilibrium dissociation constant (KD) was calculated as the ratio kd/ka.
A general note: In SPR one partner is held on a chip, and binding of the other changes the refractive index at the surface.

In another experiment the target is T6, hAREG-98aa (human, UniProt P15514 101-198).
T6 construct: Bought protein
T6 sequence (looked up): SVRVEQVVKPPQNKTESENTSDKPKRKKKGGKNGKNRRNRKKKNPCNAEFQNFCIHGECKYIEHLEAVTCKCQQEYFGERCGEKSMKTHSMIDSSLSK
Described as above. As to the method: as §3

The target in the next experiment is T7, hAREG-EGFd-mFc (human; mouse, UniProt P15514 142-184).
T7 construct: Expressed in 293F cells; not shown: Fc fragment of mouse IgG2a
T7 chain: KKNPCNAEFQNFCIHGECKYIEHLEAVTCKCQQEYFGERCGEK
The experiment is described as above. As to the method: as §3

The target of a further experiment is T8, hAREG-E149K variant (human, UniProt P15514 142-184).
T8 construct: also called E149K variant of hAREG-EGFd
T8 chain: T7 chain with E8K
Put plainly: SPR (Biacore T200).

The next experiment has as its target T9, hAREG-H164N variant (human, UniProt P15514 142-184).
T9 construct: also called H164N variant of hAREG-EGFd
T9 chain: T7 chain with H23N
Briefly: SPR (Biacore T200).

The target of experiment [4] is T3, hAREG: human AREG comprising residues …. Briefly: hybridoma screening by ELISA on biotinylated hAREG and SPR. As to the method:
The supernatant of hybridoma clones were examined for binding activity to biotinylated hAREG by ELISA. Clones with high binding activity were selected and expanded for subsequent subcloning, and the supernatant of the subclones were analyzed by ELISA and SPR. The SPR analysis was performed using Biacore T200 instrument (GE Life Sciences). Diluted supernatant was captured on anti-mFc CM5 biosensor chip, then 200 nM of hAREG EGF domain-hFc flowed in mobile phase. Subclones with high affinity was expanded for RNA extraction. Cells were resuspended in TRIzol (Life Technologies), and total RNA was extracted following the instruction manual. The cDNA of subclones was synthesized using PrimeScript™ RT Master Mix (TaKaRa). The VH and VL genes of each antibody were amplified using a set of PCR primers specific to mouse antibody variable genes. PCR products were cloned into a PCR sequencing vector for sequencing.

Experiment [5] addresses T1, mAREG: mouse AREG comprising residues …. Put plainly: ELISA screening after phage library selection.
Experiment [6] concerns the target T3, hAREG: human AREG comprising residues …. Briefly: ELISA screening after phage library selection.
In experiment [7] the target is T10, biotinylated mAREG-EGFd (expressed in E. coli) (mouse, UniProt P31955 135-177, limits assumed, biotinylated).
T10 construct: domain: EGFd; E. coli-expressed biotinylated form used for the library selection; not the mFc fusion m33
T10 chain (looked up): T5 chain
Put plainly: phage antibody library selection and ELISA screening. As to the method:
(§4) Phage particles expressing scFv on their surface (phage-ScFv) were prepared from the library and used for selection of scFvs against the target antigens including the biotinylated AREG proteins and peptides. The antigens were captured on streptavidin-conjugated magnetic M-280 Dynabeads® (Life Technologies) and then incubated with 5×10¹² phage particles prepared from the library, respectively. For each soluble AREG protein or peptide (antigen, Ab), two rounds of selection were performed. For obtaining cross-reactive human mAbs recognizing both hAREG and mAREG, the hAREG and mAREG were used respectively in the 1st and 2nd rounds of selection. […] Some of the phage-Abs were subsequently converted into human IgG1 (hIgG1) or mouse IgG2a format and analyzed for binding to both hAREG and mAREG using enzyme-linked immunosorbent assay (ELISA) or Biacore.
(§5) About […] of AREG protein or peptide at 100 μL per well were then captured onto the plates by incubation at 30° C. for 1 hour. […] Specific bound phage-scFvs were detected by adding HRP-conjugated mouse anti-M13 antibody (GE Healthcare) and incubated for 30 mins at 30° C. […] The absorbance at 450 nm with the correction wavelength set at 630 nm was read by a microplate reader (Bio-Rad). […]

In experiment [8] the target is T2, C18 peptide. Briefly: phage antibody library selection on the C18 peptide and ELISA screening. As to the method: as §4, §5

Positions count from the first letter of the chain named. Where no end group is shown, it is not given here.

B1: P7 (antibody, V domains shown)
VH: EVQLVQSGGGVVQPGRSLRLSCAASGFIFSSHAMSWVRQAPGKGLEWVSAISGSGGSTYYADSVKGRFTISRDNSKNTLYLQMNSLRAEDTAVYYCAKVDTKFDPWGQGTLVTVSS
VL: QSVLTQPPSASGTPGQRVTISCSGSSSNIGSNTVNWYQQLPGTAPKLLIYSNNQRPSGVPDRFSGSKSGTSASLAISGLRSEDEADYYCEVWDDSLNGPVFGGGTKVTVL
notes: Human mAb from a phage scFv library, selected on the C18 peptide; Human IgG1 or mouse IgG2a format
What is called EC50 (read off the curve) is the concentration that produces a half-maximal response. High values mean a less potent agent, low ones a more potent agent. For B1, the figures for the “EC50 (read off the curve)” value (in experiment [1]; with C18 peptide [2]; in experiment [3]) were roughly 0.9 nM, roughly 0.06 nM and roughly 0.08 nM, respectively. Besides, the binding result in the experiment with mAREG-EGFd-DLLA-mFc was “binds”.

B2: hu9C12v4 (antibody, V domains shown)
VH: EVQLVESGGGLVKPGGSLRLSCAASGFTFSSYPMSWVRQAPEKGLEWVSTISTGGRYTYYPDSVKGRFTISRDNAKNSLYLQMNSLRAEDTAVYYCARQGPIYYGNYYYAMDYWGQGTTVTVSS
VL: DIVMTQSPLSLPVTLGDPASISCRSSQSLVDGEDGTYLNWFQQRPGQSPKLLIYKVSERFDGVPDRFSGSGSGTDFTLKISRVEAEDVGVYYCSQSTHVPYTFGGGTKVEIK
notes: Humanized 9C12 variant
A word on the Kd: it is the constant that tells how readily two partners part at equilibrium. As a reminder, the koff is the first-order rate constant of dissociation. Higher therefore signals fast dissociation. For orientation: kon means the rate constant with which the complex forms. A low value points to slow association. With B2, the results for the Kd with mAREG-EGFd-mFc, with hAREG-98aa and with hAREG-EGFd-mFc were 9.01 nM, 0.462 nM and 1.04 nM, respectively. Also, the values for the koff with hAREG-98aa and with hAREG-EGFd-mFc were 0.00372 s⁻¹ and 0.00077 s⁻¹, respectively. The association rate constant (kon) with hAREG-98aa amounted to 8.04e+06 M⁻¹ s⁻¹; with hAREG-EGFd-mFc, 745000 M⁻¹ s⁻¹. Moreover, the binding result with mAREG-EGFd-DLLA-mFc is recorded as “binds”; with hAREG-E149K variant, “binds”; in the experiment with hAREG-H164N variant, “no binding”.

B3: 23H8 (antibody, V domains shown)
VH: EVQLQESGGGLVKPGGSLKLSCAASGFTFNSYAMSWVRQTPEKRLEWVATISTGGSHTYYPDSVKGRFTISRDNAKNTLYLQMSSLRSEDTAMYYCARHGYLLYDGYYEWYFDVWGAGTTVTVSS
VL: DIVLTQSPASLAVSLGQRATISCKASQSVDYDGHSFLNWYQQKPGQPPKLLIYAASNLESGLPARFSGSGSGTDFTLNIHPVEEEDAATYYCQQSTEDPPYTFGGGTKLEIK
notes: Mouse hybridoma mAb; made recombinantly as mIgG1, mIgG2a or chimeric human IgG1; also called m23H8
On to B3, for which, in experiment [4], the binding result is on record as “binds”.

B4: E1H3L4 (antibody, V domains shown)
VH: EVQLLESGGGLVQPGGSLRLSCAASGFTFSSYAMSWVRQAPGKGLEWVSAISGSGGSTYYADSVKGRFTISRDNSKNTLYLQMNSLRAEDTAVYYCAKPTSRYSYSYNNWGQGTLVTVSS
VL: QAVLTQPPSASGTPGQRVTISCTGNSNNVGDQGAVWYQQLPGTAPKLLIYRNNNRPSGVPDRFSGSKSGTSASLAISGLQSEDEADYYCSTWDKNNKSVVFGGGTKLTVL
notes: Human IgG1 or mouse IgG2a format
For the molecule B4, the results for the “EC50 (read off the curve)” value (in [1]; with C18 peptide [2]; in experiment [3]) were roughly 0.5 nM, roughly 0.2 nM and roughly 0.06 nM, respectively. For the same molecule, the binding result with mAREG-EGFd-DLLA-mFc is recorded as “binds”.

B5: E1L2 (antibody, V domains shown)
VH: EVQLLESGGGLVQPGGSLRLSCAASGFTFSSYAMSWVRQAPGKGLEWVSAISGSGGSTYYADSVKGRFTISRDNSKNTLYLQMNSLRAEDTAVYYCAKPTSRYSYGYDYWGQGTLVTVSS
VL: QAGLTQPPSVSKGLRQTATLTCTGNSNNVGDQGAVWLQQHQGHPPRLLSYRNNNRPSGISERFSASRSGNTASLTITGLQPEDEADYYCSTWDSGLNSVVFGGGTQLTVL
notes: Human mAb from a phage scFv library; Phage-Abs were converted into human IgG1 or mouse IgG2a format
B5: the binding result (in experiment [5]; in experiment [6]; in experiment [7]; in the experiment with C18 peptide [8]) was “binds” each time.

B6: 9C12 (antibody, V domains shown)
VH: EVKLVESGGGLVKPGGSLKLSCAASGFTFSSYPMSWVRQTPEKRLEWVATISTGGTYTYYPDSVKGRFTISRDNAKNTLYLQMSSLRSEDTAMYYCARQGPIYYGNYYYAMDYWGQGTSVTVSS
VL: DIVMTQPPLSLPVSLGDQASISCRSSQSLVHSDGNTYLHWYLQRPGQSPKLLIYKVSNRFSGVPDRFSGSGSGTDFTLKISRVEAEDLGVYFCSQSTHVPYTFGGGTKLEIK
notes: Mouse hybridoma mAb; made recombinantly as mIgG1, mIgG2a or chimeric human IgG1; also called m9C12
On to B6, for which the binding result in experiment [4] is on record as “binds”.
